The values that follow come from publication PMC7954794 (2021).

B1: S. cerevisiae Abp1 (full length; SH3 domain 535-592 mutated) / Hua2 (parent complex)
chain 1: MALEPIDYTTHSREIDAEYLKIVRGSDPDTTWLIISPNAKKEYEPESTGSSFHDFLQLFDETKVQYGLARVSPPGSDVEKIIIIGWCPDSAPLKTRASFAANFAAVANNLFKGYHVQVTARDEDDLDENELLMKISNAAGARYSIQTSSKQQGKASTPPVKKSFTPSKSPAPVSKKEPVKTPSPAPAAKISSRVNDNNDDDDWNEPELKERDFDQAPLKPNQSSYKPIGKIDLQKVIAEEKAKEDPRLVQKPTAAGSKIDPSSDIANLKNESKLKRDSEFNSFLGTTKPPSMTESSLKNDDDKVIKGFRNEKSPAQLWAERKAKQNSGNAETKAEAPKPEVPEDEPEGEPDVKDLKSKFEGLAASEKEEEEMENKFAPPPKKSEPTIISPKPFSKPQEPVKAEEAEQPKTDYKKIGNPLPGMHIEADNEEEPEENDDDWDDDEDEAAQPPLPSRNVASGAPVQKEEPEQEEIAPSLPSRNSIPAPKQEEAPEQAPEEEIEEEAEEAAPQLPSRSSAAPPPPPRRATPEKKPKENPWATAEYDYDAAEDNELTFVENDKIINIEFVDDDWWLGELEKDGSKGLFPSNYVSLGN
chain 2: MQQTKFGKMYLDHDSVVEYSEDEIVEADRITLGYKKRLSMIENQMRHLLEDFSLDVQQIEPILADLQKYYDAFLQLLQKRNKSLQCKRSTHQPVPSPMNSQTSTNAKVNLSGKLMKFQLNSVQKFDEENILRILQNKIEFEHYFQIDKGKKQKVLLLAVYQCLNGPTRLHKVLNIEGIIHNNSIRTILGKQVSSSKWTVFLYDVKLVLLAHRQDVPNLETSKMIVRYGDLFPCALYFKDHTAY

The test covers variants of B1. The experiment in a line: DHFR protein-fragment complementation in yeast (Abp1-DHFR F[1,2] x partner-DHFR F[3]), deep mutational scanning, second methotrexate selection vs reference; S. cerevisiae, DHFR-PCA selection in liquid with methotrexate at 30 C, two 72 h selections (the score uses the second); reference = the pre-selection culture.
In the case of chain 1 K576C, the screen value was -0.496 DMS score: mean over two replicates of log2(f_test/f_ref + 0.5)/ln 2, minus the synonymous-codon median (not a log2 ….
The result for chain 1 N592P reads 0.755 DMS score: mean over two replicates of log2(f_test/f_ref + 0.5)/ln 2, minus the synonymous-codon median (not a log2 …; that for chain 1 N592K, -0.463 DMS score: mean over two replicates of log2(f_test/f_ref + 0.5)/ln 2, minus the synonymous-codon median (not a log2 ….
As for chain 1 N592I, the screen value is 0.311 DMS score: mean over two replicates of log2(f_test/f_ref + 0.5)/ln 2, minus the synonymous-codon median (not a log2 ….
For the variant chain 1 N592L, the screen value is 0.472 DMS score: mean over two replicates of log2(f_test/f_ref + 0.5)/ln 2, minus the synonymous-codon median (not a log2 ….
The result for chain 1 N592V reads 0.252 DMS score: mean over two replicates of log2(f_test/f_ref + 0.5)/ln 2, minus the synonymous-codon median (not a log2 ….
Under chain 1 T552N stands -0.374 DMS score: mean over two replicates of log2(f_test/f_ref + 0.5)/ln 2, minus the synonymous-codon median (not a log2 ….
Under chain 1 T552D stands -0.688 DMS score: mean over two replicates of log2(f_test/f_ref + 0.5)/ln 2, minus the synonymous-codon median (not a log2 …; under chain 1 T552S, 0.616 DMS score: mean over two replicates of log2(f_test/f_ref + 0.5)/ln 2, minus the synonymous-codon median (not a log2 …; under chain 1 D544S, 0.42 DMS score: mean over two replicates of log2(f_test/f_ref + 0.5)/ln 2, minus the synonymous-codon median (not a log2 ….
chain 1 D544R: the screen value is 0.711 DMS score: mean over two replicates of log2(f_test/f_ref + 0.5)/ln 2, minus the synonymous-codon median (not a log2 ….
The result for chain 1 G591F reads 0.26 DMS score: mean over two replicates of log2(f_test/f_ref + 0.5)/ln 2, minus the synonymous-codon median (not a log2 …; that for chain 1 P535C, 1.46 DMS score: mean over two replicates of log2(f_test/f_ref + 0.5)/ln 2, minus the synonymous-codon median (not a log2 …; that for chain 1 P535F, 0.0686 DMS score: mean over two replicates of log2(f_test/f_ref + 0.5)/ln 2, minus the synonymous-codon median (not a log2 ….
The result for chain 1 P535G reads -0.0677 DMS score: mean over two replicates of log2(f_test/f_ref + 0.5)/ln 2, minus the synonymous-codon median (not a log2 …; that for chain 1 P535N, 0.729 DMS score: mean over two replicates of log2(f_test/f_ref + 0.5)/ln 2, minus the synonymous-codon median (not a log2 ….
Under chain 1 N549T stands 1.38 DMS score: mean over two replicates of log2(f_test/f_ref + 0.5)/ln 2, minus the synonymous-codon median (not a log2 …; under chain 1 N549M, 1.68 DMS score: mean over two replicates of log2(f_test/f_ref + 0.5)/ln 2, minus the synonymous-codon median (not a log2 ….
With chain 1 D568V, the screen value was -2.62 DMS score: mean over two replicates of log2(f_test/f_ref + 0.5)/ln 2, minus the synonymous-codon median (not a log2 ….
Under chain 1 D568E stands -1.5 DMS score: mean over two replicates of log2(f_test/f_ref + 0.5)/ln 2, minus the synonymous-codon median (not a log2 …; under chain 1 D577S, 0.3 DMS score: mean over two replicates of log2(f_test/f_ref + 0.5)/ln 2, minus the synonymous-codon median (not a log2 …; under chain 1 D577T, -0.226 DMS score: mean over two replicates of log2(f_test/f_ref + 0.5)/ln 2, minus the synonymous-codon median (not a log2 ….
Under chain 1 V554Q stands 0.94 DMS score: mean over two replicates of log2(f_test/f_ref + 0.5)/ln 2, minus the synonymous-codon median (not a log2 ….
The result for chain 1 E547Y reads -0.85 DMS score: mean over two replicates of log2(f_test/f_ref + 0.5)/ln 2, minus the synonymous-codon median (not a log2 …; that for chain 1 S589E, 1.15 DMS score: mean over two replicates of log2(f_test/f_ref + 0.5)/ln 2, minus the synonymous-codon median (not a log2 ….
Take chain 1 S589V: the screen value is 0.593 DMS score: mean over two replicates of log2(f_test/f_ref + 0.5)/ln 2, minus the synonymous-codon median (not a log2 ….
Under chain 1 S589K stands 0.37 DMS score: mean over two replicates of log2(f_test/f_ref + 0.5)/ln 2, minus the synonymous-codon median (not a log2 ….
Under chain 1 I560T stands -0.415 DMS score: mean over two replicates of log2(f_test/f_ref + 0.5)/ln 2, minus the synonymous-codon median (not a log2 …; under chain 1 I560E, -0.924 DMS score: mean over two replicates of log2(f_test/f_ref + 0.5)/ln 2, minus the synonymous-codon median (not a log2 …; under chain 1 I560F, -0.852 DMS score: mean over two replicates of log2(f_test/f_ref + 0.5)/ln 2, minus the synonymous-codon median (not a log2 ….
Under chain 1 I560K stands 0.427 DMS score: mean over two replicates of log2(f_test/f_ref + 0.5)/ln 2, minus the synonymous-codon median (not a log2 …; under chain 1 A545G, -0.421 DMS score: mean over two replicates of log2(f_test/f_ref + 0.5)/ln 2, minus the synonymous-codon median (not a log2 ….
Consider chain 1 W536E, for which the screen value was -0.841 DMS score: mean over two replicates of log2(f_test/f_ref + 0.5)/ln 2, minus the synonymous-codon median (not a log2 ….
Under chain 1 W536H stands -0.883 DMS score: mean over two replicates of log2(f_test/f_ref + 0.5)/ln 2, minus the synonymous-codon median (not a log2 …; under chain 1 L571S, -0.425 DMS score: mean over two replicates of log2(f_test/f_ref + 0.5)/ln 2, minus the synonymous-codon median (not a log2 …; under chain 1 L571H, 0.744 DMS score: mean over two replicates of log2(f_test/f_ref + 0.5)/ln 2, minus the synonymous-codon median (not a log2 ….
Under chain 1 N586E stands -1.53 DMS score: mean over two replicates of log2(f_test/f_ref + 0.5)/ln 2, minus the synonymous-codon median (not a log2 …; under chain 1 N586K, -1.55 DMS score: mean over two replicates of log2(f_test/f_ref + 0.5)/ln 2, minus the synonymous-codon median (not a log2 ….
Regarding chain 1 N586L, the screen value was -0.863 DMS score: mean over two replicates of log2(f_test/f_ref + 0.5)/ln 2, minus the synonymous-codon median (not a log2 ….
Under chain 1 K558M stands -0.491 DMS score: mean over two replicates of log2(f_test/f_ref + 0.5)/ln 2, minus the synonymous-codon median (not a log2 …; under chain 1 D542R, -0.244 DMS score: mean over two replicates of log2(f_test/f_ref + 0.5)/ln 2, minus the synonymous-codon median (not a log2 ….
Under chain 1 D542H stands -0.15 DMS score: mean over two replicates of log2(f_test/f_ref + 0.5)/ln 2, minus the synonymous-codon median (not a log2 …; under chain 1 D542T, 0.719 DMS score: mean over two replicates of log2(f_test/f_ref + 0.5)/ln 2, minus the synonymous-codon median (not a log2 …; under chain 1 L590I, 0.43 DMS score: mean over two replicates of log2(f_test/f_ref + 0.5)/ln 2, minus the synonymous-codon median (not a log2 ….
For chain 1 L590M, the screen value is -0.242 DMS score: mean over two replicates of log2(f_test/f_ref + 0.5)/ln 2, minus the synonymous-codon median (not a log2 ….
The result for chain 1 T538C reads -0.268 DMS score: mean over two replicates of log2(f_test/f_ref + 0.5)/ln 2, minus the synonymous-codon median (not a log2 …; that for chain 1 T538K, -0.703 DMS score: mean over two replicates of log2(f_test/f_ref + 0.5)/ln 2, minus the synonymous-codon median (not a log2 …; that for chain 1 T538V, 0.524 DMS score: mean over two replicates of log2(f_test/f_ref + 0.5)/ln 2, minus the synonymous-codon median (not a log2 ….
As to chain 1 E575D, the screen value is -0.0843 DMS score: mean over two replicates of log2(f_test/f_ref + 0.5)/ln 2, minus the synonymous-codon median (not a log2 ….
Under chain 1 D548H stands 0.00293 DMS score: mean over two replicates of log2(f_test/f_ref + 0.5)/ln 2, minus the synonymous-codon median (not a log2 ….
In the case of chain 1 D548G, the screen value was -0.301 DMS score: mean over two replicates of log2(f_test/f_ref + 0.5)/ln 2, minus the synonymous-codon median (not a log2 ….
The result for chain 1 D548P reads 1.53 DMS score: mean over two replicates of log2(f_test/f_ref + 0.5)/ln 2, minus the synonymous-codon median (not a log2 …; that for chain 1 D548C, 0.141 DMS score: mean over two replicates of log2(f_test/f_ref + 0.5)/ln 2, minus the synonymous-codon median (not a log2 …; that for chain 1 D548Q, 0.195 DMS score: mean over two replicates of log2(f_test/f_ref + 0.5)/ln 2, minus the synonymous-codon median (not a log2 ….
Turning to chain 1 D548W, the screen value is -0.639 DMS score: mean over two replicates of log2(f_test/f_ref + 0.5)/ln 2, minus the synonymous-codon median (not a log2 ….
Under chain 1 E563Q stands -0.159 DMS score: mean over two replicates of log2(f_test/f_ref + 0.5)/ln 2, minus the synonymous-codon median (not a log2 …; under chain 1 E563S, -0.411 DMS score: mean over two replicates of log2(f_test/f_ref + 0.5)/ln 2, minus the synonymous-codon median (not a log2 ….
Under chain 1 E563K stands -0.922 DMS score: mean over two replicates of log2(f_test/f_ref + 0.5)/ln 2, minus the synonymous-codon median (not a log2 ….
The result for chain 1 S579E reads -0.235 DMS score: mean over two replicates of log2(f_test/f_ref + 0.5)/ln 2, minus the synonymous-codon median (not a log2 …; that for chain 1 L574C, -0.496 DMS score: mean over two replicates of log2(f_test/f_ref + 0.5)/ln 2, minus the synonymous-codon median (not a log2 ….
For the variant chain 1 F553M, the screen value was 0.868 DMS score: mean over two replicates of log2(f_test/f_ref + 0.5)/ln 2, minus the synonymous-codon median (not a log2 ….
Under chain 1 E540Y stands -2.86 DMS score: mean over two replicates of log2(f_test/f_ref + 0.5)/ln 2, minus the synonymous-codon median (not a log2 …; under chain 1 E540T, -0.981 DMS score: mean over two replicates of log2(f_test/f_ref + 0.5)/ln 2, minus the synonymous-codon median (not a log2 ….
With chain 1 N561H, the screen value was -0.956 DMS score: mean over two replicates of log2(f_test/f_ref + 0.5)/ln 2, minus the synonymous-codon median (not a log2 ….
The result for chain 1 E555V reads -0.0654 DMS score: mean over two replicates of log2(f_test/f_ref + 0.5)/ln 2, minus the synonymous-codon median (not a log2 ….
Consider chain 1 E555T, for which the screen value was 0.557 DMS score: mean over two replicates of log2(f_test/f_ref + 0.5)/ln 2, minus the synonymous-codon median (not a log2 ….
Under chain 1 E555K stands 0.347 DMS score: mean over two replicates of log2(f_test/f_ref + 0.5)/ln 2, minus the synonymous-codon median (not a log2 …; under chain 1 E555L, -0.165 DMS score: mean over two replicates of log2(f_test/f_ref + 0.5)/ln 2, minus the synonymous-codon median (not a log2 ….
The result for chain 1 V565T reads 0.578 DMS score: mean over two replicates of log2(f_test/f_ref + 0.5)/ln 2, minus the synonymous-codon median (not a log2 …; that for chain 1 Y587K, -2.96 DMS score: mean over two replicates of log2(f_test/f_ref + 0.5)/ln 2, minus the synonymous-codon median (not a log2 ….
In the case of chain 1 Y587T, the screen value was -2.4 DMS score: mean over two replicates of log2(f_test/f_ref + 0.5)/ln 2, minus the synonymous-codon median (not a log2 ….
Under chain 1 D566Y stands -2.1 DMS score: mean over two replicates of log2(f_test/f_ref + 0.5)/ln 2, minus the synonymous-codon median (not a log2 ….
The result for chain 1 A546R reads -1.4 DMS score: mean over two replicates of log2(f_test/f_ref + 0.5)/ln 2, minus the synonymous-codon median (not a log2 ….
The result for chain 1 A546F reads -0.502 DMS score: mean over two replicates of log2(f_test/f_ref + 0.5)/ln 2, minus the synonymous-codon median (not a log2 ….
For the variant chain 1 N556E, the screen value was -0.0705 DMS score: mean over two replicates of log2(f_test/f_ref + 0.5)/ln 2, minus the synonymous-codon median (not a log2 ….
